Values quoted from earlier work in patent US10669306B2, “Solid supports for use in solid-phase peptide synthesis, kits, and related methods” (UNIVERSITY OF WASHINGTON, priority 2016, dated 2020).

Biological target: integrin αvβ3 receptor (Homo sapiens, UniProt P05106+P06756)
Conditions: cyclic form; Prante, O., et al. Bioconjug. Chem. 2007, 18, 254

integrin αvβ3 receptor, sequence (P06756 31-889 limits assumed): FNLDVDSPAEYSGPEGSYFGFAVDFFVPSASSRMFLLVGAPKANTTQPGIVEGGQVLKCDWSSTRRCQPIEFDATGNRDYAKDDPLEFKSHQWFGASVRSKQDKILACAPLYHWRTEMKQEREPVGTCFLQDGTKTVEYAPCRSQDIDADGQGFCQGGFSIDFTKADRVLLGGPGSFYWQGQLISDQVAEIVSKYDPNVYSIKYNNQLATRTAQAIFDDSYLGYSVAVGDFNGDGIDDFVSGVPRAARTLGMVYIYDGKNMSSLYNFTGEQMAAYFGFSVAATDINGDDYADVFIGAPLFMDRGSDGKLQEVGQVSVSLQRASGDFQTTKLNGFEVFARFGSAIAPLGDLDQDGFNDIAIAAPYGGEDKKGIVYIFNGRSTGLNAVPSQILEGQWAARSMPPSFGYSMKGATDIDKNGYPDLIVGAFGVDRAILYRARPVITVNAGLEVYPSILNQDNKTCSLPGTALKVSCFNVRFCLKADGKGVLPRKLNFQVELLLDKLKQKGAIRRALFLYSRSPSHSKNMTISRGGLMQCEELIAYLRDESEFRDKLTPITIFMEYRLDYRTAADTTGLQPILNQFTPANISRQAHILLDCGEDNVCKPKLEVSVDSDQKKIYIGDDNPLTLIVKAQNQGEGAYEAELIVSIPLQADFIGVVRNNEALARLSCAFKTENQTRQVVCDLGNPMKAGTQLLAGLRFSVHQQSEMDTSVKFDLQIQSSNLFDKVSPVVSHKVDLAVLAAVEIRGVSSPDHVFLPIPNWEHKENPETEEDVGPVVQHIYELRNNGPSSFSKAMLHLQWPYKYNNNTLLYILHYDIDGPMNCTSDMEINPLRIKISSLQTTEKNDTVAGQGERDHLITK
integrin αvβ3 receptor, sequence (P06756 891-1048 partner limits assumed): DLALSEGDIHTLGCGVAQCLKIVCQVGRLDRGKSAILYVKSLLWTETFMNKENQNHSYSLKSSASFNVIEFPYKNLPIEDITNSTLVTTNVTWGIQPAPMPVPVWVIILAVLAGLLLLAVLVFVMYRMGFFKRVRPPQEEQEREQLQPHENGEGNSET
integrin αvβ3 receptor, sequence (P05106 27-788): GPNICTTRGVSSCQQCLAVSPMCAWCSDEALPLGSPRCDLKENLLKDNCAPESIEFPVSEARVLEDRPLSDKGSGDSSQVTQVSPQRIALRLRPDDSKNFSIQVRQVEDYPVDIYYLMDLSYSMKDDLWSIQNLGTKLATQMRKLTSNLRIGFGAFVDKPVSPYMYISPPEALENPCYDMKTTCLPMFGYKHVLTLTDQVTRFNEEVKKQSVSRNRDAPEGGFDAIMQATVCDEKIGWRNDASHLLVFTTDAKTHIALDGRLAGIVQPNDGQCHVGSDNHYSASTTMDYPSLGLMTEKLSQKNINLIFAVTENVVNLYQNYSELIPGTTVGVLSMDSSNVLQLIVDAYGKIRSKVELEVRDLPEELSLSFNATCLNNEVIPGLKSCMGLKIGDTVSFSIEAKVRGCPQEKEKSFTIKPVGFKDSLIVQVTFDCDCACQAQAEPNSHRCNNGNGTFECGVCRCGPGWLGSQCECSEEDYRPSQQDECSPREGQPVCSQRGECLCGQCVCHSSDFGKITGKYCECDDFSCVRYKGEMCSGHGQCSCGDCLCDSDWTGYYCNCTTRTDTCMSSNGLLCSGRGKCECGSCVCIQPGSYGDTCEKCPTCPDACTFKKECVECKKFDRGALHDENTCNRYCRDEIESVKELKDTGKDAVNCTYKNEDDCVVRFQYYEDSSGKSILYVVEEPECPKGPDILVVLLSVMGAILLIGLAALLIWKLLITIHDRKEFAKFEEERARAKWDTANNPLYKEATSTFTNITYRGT

binding affinity for integrin αvβ3 receptor: nanomolar affinity
Substance: CRGD(D-F): Cyclic CRGD(D)-F, a commercially available integrin binding peptide (ANASPEC)
